The text below walks through data of PMC3855604.

Data set [1] has as its target non-glycosylated Q123K PAI-1 (human) (UniProt P05121).
Data set [2] has as its target wild type glycosylated PAI-1 (human) (UniProt P05121).
The target of data set [3] is wild type recombinant non-glycosylated PAI-1 (human) (UniProt P05121).
Data set [4] deals with S119C (NBD S119C) PAI-1 (human) (UniProt P05121). The experiment in a line: stopped-flow fluorimetry.
Data set [5] concerns the target complex of NBD S119C PAI-1 with S195A tcuPA (UniProt P05121). The experiment in a line: stopped-flow fluorimetry.
In data set [6] the target is S119C (NBD S119C) PAI-1 (human) (UniProt P05121). The experiment in a line: stopped-flow fluorimetry. The source holds these as a separate data set.
The target of data set [7] is complex of wt rPAI-1 with Vn (UniProt P05121).
In data set [8] the target is non-glycosylated Q123K PAI-1 (human) (UniProt P05121). The experiment in a line: competition read by tPA amidolytic activity.
Data set [9] has as its target M447C (NBD P1′) PAI-1 (human). The experiment in a line: stopped-flow fluorimetry.
In data set [10] the target is non-glycosylated Q123K PAI-1 (human) (UniProt P05121). The experiment in a line: competition read by tPA amidolytic activity. The source holds these as a separate data set.
Data set [11] concerns the target wild type glycosylated PAI-1 (human) (UniProt P05121). The experiment in a line: competition read by tPA amidolytic activity.
A further data set relates to M447C (NBD P1′) PAI-1. The experiment in a line: stopped-flow fluorimetry. The following applies: other: stopped-flow fluorimetry.

Read-outs that look alike come from different tables or passages of the source.

Consider Monomeric vitronectin (natural protein), for which, in data set [1], the kL2 (spontaneous inactivation of Q123K PAI-1 with Vn), 37°C was 0.00018 s⁻¹; the kL2 (spontaneous inactivation of Q123K PAI-1 with Vn), 50°C was found to be 0.0081 s⁻¹; the kL2 (spontaneous inactivation of Q123K PAI-1 with Vn), 55°C is 0.0109 s⁻¹; the kL2 (spontaneous inactivation of Q123K PAI-1 with Vn), 60°C is 0.0222 s⁻¹. In [2], this substance showed a kL2 (spontaneous inactivation of PAI-1 with Vn), 37°C of 3.6e-05 s⁻¹; a kL2 (spontaneous inactivation of PAI-1 with Vn), 50°C of 0.00043 s⁻¹; a kL2 (spontaneous inactivation of PAI-1 with Vn), 55°C of 0.001 s⁻¹; a kL2 (spontaneous inactivation of PAI-1 with Vn), 60°C of 0.0049 s⁻¹. Further, the kL2 (spontaneous inactivation of PAI-1 with Vn), 60°C in data set [3] was 0.011 s⁻¹. Besides, in data set [4], the koff was in the range of 0.0022 to 0.0072 s⁻¹ and the on-rate constant (kon) amounted to 7.2e+06 M⁻¹ s⁻¹. In data set [5], this substance gave a kon of 1.33e+07 M⁻¹ s⁻¹. Also, the kon in [6] came out at 7.5e+06 M⁻¹ s⁻¹.
In [7], “S195A two chain urokinase (S356A; S195A in chymotrypsin numbering) (enzyme)” returned a kL4 (spontaneous inactivation of PAI-1 with Vn and S195A tcuPA), 37°C of 3.4e-06 s⁻¹; a kL4 (spontaneous inactivation of PAI-1 with Vn and S195A tcuPA), 50°C of 0.00011 s⁻¹; a kL4 (spontaneous inactivation of PAI-1 with Vn and S195A tcuPA), 55°C of 0.00012 s⁻¹; a kL4 (spontaneous inactivation of PAI-1 with Vn and S195A tcuPA), 60°C of 0.00042 s⁻¹. Besides, in data set [1], the kL3 (spontaneous inactivation of Q123K PAI-1 with S195A tcuPA), 37°C came out at 5e-05 s⁻¹; the kL3 (spontaneous inactivation of Q123K PAI-1 with S195A tcuPA), 50°C came to 0.00066 s⁻¹; the kL3 (spontaneous inactivation of Q123K PAI-1 with S195A tcuPA), 60°C stood at 0.00122 s⁻¹. In data set [2], the kL3 (spontaneous inactivation of PAI-1 with S195A tcuPA), 50°C was 0.00024 s⁻¹ and the kL3 (spontaneous inactivation of PAI-1 with S195A tcuPA), 60°C is 0.0025 s⁻¹. The same substance came in with a Kd in [8] of 1.3 nM. For the same substance, in data set [9], the Kd is 24.6 nM, the koff came out at 0.15 s⁻¹ and the kon was found to be 6.1e+06 M⁻¹ s⁻¹. Moreover, in [10], the Kd was 1.3 nM. In [11], this substance showed a Kd of 1.2 nM.
With recombinant two chain urokinase, the KM in the data set on M447C (NBD P1′) PAI-1 stood at 10.2 ± 2.2 µM.
In data set [9], “recombinant two chain urokinase (enzyme)” registered a kon of 2.68e+07 M⁻¹ s⁻¹.
